# Results: patent publication US20250002577A1 (ONCORESPONSE, published 2025)
# B1: Comp 2 (anti-LILRB2 antibody) (antibody, human IgG1, kappa, V domains shown)
# VH: QIQLVQSGPELKKPGETVKISCKASGYTFTNYGMNWVKQAPGKGLKWMGWINTYIGEPIYADDFKGRFAFSLETSASTAYLQINNLKNEDMATYFCARRSDYDGYAMDYWGQGTSVTVSS
# VL: DIVMSQSPSSLAVSVGERVTMSCKSSQSLLYSGNQKNYLAWYQQKPGQSPKLLIYWASTRESGVPDRFTGSGSGTDFTLTISSVKAEDLAVYYCQQHDSYPTFGGGSRLEIKR
# B2: B21H1-14 (antibody, human IgG1, kappa)
# heavy: not shown
# light: DVVMTQSPSTVSASVGDRVTLTCQASGNIYSFLAWYQQKPGQPPKLLIYTASNLETGVPDRFSGSGSGTDYTLTISSLQADDFATYYCLGGLYSSDVSYAFGQGTKVEIKRTVAAPSVFIFPPSDEQLKSGTASVVCLLNNFYPREAKVQWKVDNALQSGNSQESVTEQDSKDSTYSLSSTLTLSKADYEKHKVYACEVTHQGLSSPVTKSFNRGEC
# notes: humanized IgG1/kappa, VH1+VL4
# B3: Comp 3 (antibody, human IgG1, kappa, N297G, V domains shown)
# VH: QVQLVQSGAEVKKPGASVKVSCKASGYTFTDYYINWVRQAPGQGLEWMGNVNPNDGGTTYNQKFKGRVTMTTDTSTSTAYMELRSLRSDDTAVYYCARREIYFYGTIYYYAMDYWGQGTLVTVSS
# VL: DIQLTQSPSFLSASVGDRVTITCRASESVDYYGNSFMYWYQQKPGKAPKLLIYFASNLESGVPSRFSGSGSGTEFTLTISSLQPEDFATYYCQQNNEDPWTFGGGTKVEIKR
# notes: The text says 'a LILRB2/1 antibody (Comp 3); also called comparator LILRB2/1 antibody
# B4: Comp 1 (anti-LILRB1 antibody) (antibody, human IgG1, kappa, V domains shown)
# VH: QVQLKESGPGLVAPSQSLSITCTVSGFSLTNYGVSWVRQPPGKGLEWLGIIWGDGSTNYHSALISRLSISKDNSKSQVFLKLNSLQADDTATYYCAKPNWDTYAMDFWGQGTSVTVSS
# VL: DIQMTQTTSSLSASLGDRVTISCRASQDISNFLNWYQQKPDGTVKLLIYCTSKLHSGVPSRFSGSGSETDYSLTISNLEQEDIATYFCQQGNTLPPTFGGGTKLEIIR
# How the values were obtained:
# human LILRB2 on cells [1] = target: T1, human LILRB2 on cells (human, UniProt Q8N423 22-597); test: flow cytometry, AF647-labelled antibody on HEK293T cells stably expressing human LILRB2
# T1 construct: whole, on cells; also called hLILRB2; LILRB2-HEK293T
# T1 sequence (Q8N423 22-597): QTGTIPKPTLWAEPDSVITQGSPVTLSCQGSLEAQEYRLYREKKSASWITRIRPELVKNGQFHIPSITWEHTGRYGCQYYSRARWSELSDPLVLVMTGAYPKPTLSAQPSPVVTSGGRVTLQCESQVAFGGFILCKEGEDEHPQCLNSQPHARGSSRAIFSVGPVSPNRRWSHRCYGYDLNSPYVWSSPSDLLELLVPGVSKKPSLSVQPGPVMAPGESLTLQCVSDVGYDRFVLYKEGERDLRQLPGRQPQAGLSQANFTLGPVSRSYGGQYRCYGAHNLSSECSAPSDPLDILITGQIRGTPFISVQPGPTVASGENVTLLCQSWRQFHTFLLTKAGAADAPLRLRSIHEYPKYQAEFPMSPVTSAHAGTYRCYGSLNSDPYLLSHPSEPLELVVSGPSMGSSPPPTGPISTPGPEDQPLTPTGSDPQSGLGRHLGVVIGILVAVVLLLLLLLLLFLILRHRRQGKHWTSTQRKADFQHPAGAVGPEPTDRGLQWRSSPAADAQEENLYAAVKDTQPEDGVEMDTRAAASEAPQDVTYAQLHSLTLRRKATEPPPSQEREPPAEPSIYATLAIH
# Method: While LILRB2 expression is mostly restricted to myeloid cells, LILRB1 has a broader expression on immune cell subsets, including B cells, T cells and NK cells.
# Frozen cells were removed from storage in vapor phase liquid nitrogen and thawed by gentle swirling in a water bath at 37° C., then resuspended in DMEM media with 10% FBS. Cells were placed in a 15 mL conical tube and centrifuged at 300×g for 5 min, then supernatant was removed. Cells were resuspended in DMEM+10% FBS at a cell density of 2×10⁵ cells/mL in a T75 flask for culturing, and incubated at 37° C., 5% CO₂ for 3 days before passaging. Cells were passaged when the cell density reached 1×10⁶ cell/mL. On the day of the assay, cells were centrifuged, then supernatant was removed. Cells were resuspended in Blocking Buffer B (FACS Buffer containing 10% FBS and 0.5 mg/mL human IgG1 (Athens Research, No. 16-16-090707-1M)+0.05% NaN₃, 5% (w/v)) in a 15 mL conical tube, then incubated at 4° C. for 30 min. […] Cells were incubated with antibodies at 4° C. for 1 h. Cells were washed twice in FACS Buffer (PBS containing 2 mM EDTA+1% FBS+0.05% NaN₃) and then stained with for 10 min with Zombie Violet™ fixable viability dye (BioLegend, No. 423114) at RT, washed with FACS Buffer and resuspend in 75 μL of FACS Buffer for acquisition on a BD FACSymphony™ or BD FACSCanto™ II flow cytometer (BD Biosciences), as described in Example 6.
# human LILRB2 on cells [2] = target: T1, human LILRB2 on cells; test: flow cytometry, LILRB2-HEK293T cells, AF647-labelled antibody
# Procedure, shortened: (§1)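 Cells were blocked 30 min at 4° C in FACS buffer with 10% FBS and 0.5 mg/mL human IgG1. AF647-labelled antibodies were then bound for 1 h at 4° C. After Zombie Violet viability staining, binding was read by flow cytometry.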
# [3] = target: T2, recombinant human LILRB2-His (human, UniProt Q8N423 22-461, limits assumed); test: MSD ELISA, coated antigen, purified IgG1
# T2 construct: Bought protein; also called LILRB2 protein
# T2 sequence (Q8N423 22-461 limits assumed): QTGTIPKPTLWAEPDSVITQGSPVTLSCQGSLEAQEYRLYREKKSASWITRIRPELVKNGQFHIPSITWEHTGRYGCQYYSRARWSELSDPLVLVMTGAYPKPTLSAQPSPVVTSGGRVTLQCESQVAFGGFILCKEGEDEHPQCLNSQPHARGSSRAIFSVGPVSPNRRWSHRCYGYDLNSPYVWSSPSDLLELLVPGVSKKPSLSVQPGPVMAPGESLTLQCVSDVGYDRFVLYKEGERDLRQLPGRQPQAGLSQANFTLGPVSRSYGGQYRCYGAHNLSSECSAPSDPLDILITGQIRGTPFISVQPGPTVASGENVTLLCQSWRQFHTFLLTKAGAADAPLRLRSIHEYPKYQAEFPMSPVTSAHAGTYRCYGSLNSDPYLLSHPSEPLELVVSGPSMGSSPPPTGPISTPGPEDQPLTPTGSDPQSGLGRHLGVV
# [4] = target: T3, recombinant human LILRB1-His (human, UniProt Q8NHL6 24-458); test: MSD ELISA, coated antigen, purified IgG1
# T3 construct: Bought protein; also called LILRB1 protein
# [5] = target: T4, recombinant cynomolgus LILRB1 (cynomolgus); test: MSD ELISA, coated antigen, purified IgG1
# T4 construct: Bought protein
# human LILRB1 on cells [6] = target: T5, human LILRB1 on cells (human, UniProt Q8NHL6 24-650); test: flow cytometry, HEK293-6E transfectants
# T5 construct: whole, on cells; also called hLILRB1; LILRB1-expressing 721.221 cells
# T5 sequence (Q8NHL6 24-650): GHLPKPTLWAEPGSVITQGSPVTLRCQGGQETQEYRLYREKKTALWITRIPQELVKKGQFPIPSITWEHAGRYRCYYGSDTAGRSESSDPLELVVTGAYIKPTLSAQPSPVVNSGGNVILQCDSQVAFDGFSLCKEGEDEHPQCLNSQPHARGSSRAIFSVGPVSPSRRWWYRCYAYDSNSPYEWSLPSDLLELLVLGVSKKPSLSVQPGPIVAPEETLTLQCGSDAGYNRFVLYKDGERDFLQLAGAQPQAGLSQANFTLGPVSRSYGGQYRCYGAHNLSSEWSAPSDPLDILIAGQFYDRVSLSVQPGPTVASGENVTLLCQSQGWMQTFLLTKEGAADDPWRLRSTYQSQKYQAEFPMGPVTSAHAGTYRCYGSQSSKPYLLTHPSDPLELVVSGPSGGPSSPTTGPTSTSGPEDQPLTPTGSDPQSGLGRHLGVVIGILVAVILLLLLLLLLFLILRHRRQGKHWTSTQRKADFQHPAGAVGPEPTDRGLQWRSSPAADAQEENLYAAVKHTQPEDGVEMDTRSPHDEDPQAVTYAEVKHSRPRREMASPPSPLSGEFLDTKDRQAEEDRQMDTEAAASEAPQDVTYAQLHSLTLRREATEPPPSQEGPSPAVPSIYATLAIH
# Procedure, shortened: (§2)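 Antibody binding measured by flow cytometry on HEK293-6E cells transiently transfected with individual human LILRB (1–5) or LILRA (1, 2, 4, 5, 6) plasmids. Antibodies tested at 1 μg/mL.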
# [7] = target: T6, human LILRB5 on HEK293-6E cells (human, UniProt O75023 24-590); test: flow cytometry, HEK293-6E transfectants
# T6 construct: whole, on cells; also called hLILRB5
# T6 sequence (O75023 24-590): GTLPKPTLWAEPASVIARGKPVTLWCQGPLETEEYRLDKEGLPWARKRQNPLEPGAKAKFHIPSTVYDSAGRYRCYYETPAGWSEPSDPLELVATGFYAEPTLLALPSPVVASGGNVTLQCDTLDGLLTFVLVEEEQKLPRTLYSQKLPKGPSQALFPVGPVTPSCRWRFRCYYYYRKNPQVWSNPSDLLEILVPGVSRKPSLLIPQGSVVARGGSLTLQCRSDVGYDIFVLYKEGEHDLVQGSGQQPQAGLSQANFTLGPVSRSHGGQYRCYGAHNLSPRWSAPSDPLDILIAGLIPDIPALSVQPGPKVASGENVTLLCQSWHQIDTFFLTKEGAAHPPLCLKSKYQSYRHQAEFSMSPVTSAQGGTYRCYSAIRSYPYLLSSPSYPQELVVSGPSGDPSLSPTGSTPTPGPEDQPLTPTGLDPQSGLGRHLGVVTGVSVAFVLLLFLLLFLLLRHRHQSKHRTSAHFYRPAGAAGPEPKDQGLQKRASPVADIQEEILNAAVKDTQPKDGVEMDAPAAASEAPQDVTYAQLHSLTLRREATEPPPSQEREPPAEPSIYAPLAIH
# Procedure, shortened: as §2
# [8] = target: T7, human LILRA6 on HEK293-6E cells (human, UniProt Q6PI73 24-481); test: flow cytometry, HEK293-6E transfectants
# T7 construct: whole, on cells; also called hLILRA6
# T7 sequence (Q6PI73 24-481): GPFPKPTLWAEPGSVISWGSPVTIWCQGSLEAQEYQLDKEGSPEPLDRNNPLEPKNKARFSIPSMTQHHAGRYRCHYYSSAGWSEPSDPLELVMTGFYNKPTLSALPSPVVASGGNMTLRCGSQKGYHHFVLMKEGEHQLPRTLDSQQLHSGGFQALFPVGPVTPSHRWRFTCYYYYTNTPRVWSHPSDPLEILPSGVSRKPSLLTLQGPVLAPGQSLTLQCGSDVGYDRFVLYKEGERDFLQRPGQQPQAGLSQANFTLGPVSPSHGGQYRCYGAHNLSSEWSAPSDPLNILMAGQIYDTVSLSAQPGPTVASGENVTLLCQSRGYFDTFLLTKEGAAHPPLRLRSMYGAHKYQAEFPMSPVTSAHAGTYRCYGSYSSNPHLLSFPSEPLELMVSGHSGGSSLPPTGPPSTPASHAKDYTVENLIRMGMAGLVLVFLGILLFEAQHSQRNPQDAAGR
# Procedure, shortened: as §2
# human LILRB2 on cells [9] = target: T1, human LILRB2 on cells; test: flow cytometry, HEK293-6E transfectants
# Procedure, shortened: as §2
# [10] = target: T8, human LILRA5 on HEK293-6E cells (human, UniProt A6NI73 42-299); test: flow cytometry, HEK293-6E transfectants
# T8 construct: whole, on cells; also called hLILRA5
# T8 sequence (A6NI73 42-299): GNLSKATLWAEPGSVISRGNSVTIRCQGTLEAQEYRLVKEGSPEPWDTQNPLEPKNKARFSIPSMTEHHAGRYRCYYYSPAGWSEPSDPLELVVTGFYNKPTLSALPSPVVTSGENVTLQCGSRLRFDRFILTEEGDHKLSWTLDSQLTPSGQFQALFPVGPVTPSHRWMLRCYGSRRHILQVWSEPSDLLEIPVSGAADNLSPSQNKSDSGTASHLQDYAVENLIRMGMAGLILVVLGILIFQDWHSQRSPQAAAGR
# Procedure, shortened: as §2
# [11] = target: T9, human LILRA2 on HEK293-6E cells (human, UniProt Q8N149 24-483); test: flow cytometry, HEK293-6E transfectants
# T9 construct: whole, on cells; also called hLILRA2
# T9 sequence (Q8N149 24-483): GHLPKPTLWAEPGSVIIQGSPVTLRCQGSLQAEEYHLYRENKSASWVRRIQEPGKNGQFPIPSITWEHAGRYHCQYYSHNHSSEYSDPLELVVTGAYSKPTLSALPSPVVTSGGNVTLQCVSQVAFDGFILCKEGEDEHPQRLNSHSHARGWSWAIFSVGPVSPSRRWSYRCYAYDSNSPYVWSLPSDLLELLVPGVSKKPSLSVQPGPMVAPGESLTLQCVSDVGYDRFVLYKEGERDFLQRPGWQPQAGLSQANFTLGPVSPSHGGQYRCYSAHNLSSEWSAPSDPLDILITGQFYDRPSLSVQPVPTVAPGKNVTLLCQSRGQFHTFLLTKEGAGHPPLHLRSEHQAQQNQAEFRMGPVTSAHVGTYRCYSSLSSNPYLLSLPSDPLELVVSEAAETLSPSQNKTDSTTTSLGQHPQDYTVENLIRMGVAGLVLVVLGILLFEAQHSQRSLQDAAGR
# Procedure, shortened: as §2
# [12] = target: T10, human LILRB3 on HEK293-6E cells (human, UniProt O75022 24-631); test: flow cytometry, HEK293-6E transfectants
# T10 construct: whole, on cells; also called hLILRB3
# T10 sequence (O75022 24-631): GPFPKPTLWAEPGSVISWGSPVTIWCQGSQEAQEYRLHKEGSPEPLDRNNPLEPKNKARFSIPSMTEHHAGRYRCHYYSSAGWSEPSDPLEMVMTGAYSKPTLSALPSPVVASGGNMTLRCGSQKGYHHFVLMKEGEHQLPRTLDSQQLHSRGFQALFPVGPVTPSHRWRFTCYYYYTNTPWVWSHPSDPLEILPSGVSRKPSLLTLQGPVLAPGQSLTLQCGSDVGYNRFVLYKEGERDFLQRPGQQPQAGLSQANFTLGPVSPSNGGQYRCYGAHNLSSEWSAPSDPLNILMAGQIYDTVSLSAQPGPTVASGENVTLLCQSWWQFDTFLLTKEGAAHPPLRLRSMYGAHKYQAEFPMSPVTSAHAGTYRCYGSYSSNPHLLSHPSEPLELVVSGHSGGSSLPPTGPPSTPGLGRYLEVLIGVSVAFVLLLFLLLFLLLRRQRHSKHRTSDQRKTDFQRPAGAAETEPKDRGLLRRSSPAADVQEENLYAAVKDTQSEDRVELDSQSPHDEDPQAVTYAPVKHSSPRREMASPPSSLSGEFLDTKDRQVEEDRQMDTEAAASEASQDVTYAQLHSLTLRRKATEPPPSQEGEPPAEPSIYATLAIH
# Procedure, shortened: as §2
# [13] = target: T11, human LILRA4 on HEK293-6E cells (human, UniProt P59901 24-499); test: flow cytometry, HEK293-6E transfectants
# T11 construct: whole, on cells; also called hLILRA4
# T11 sequence (P59901 24-499): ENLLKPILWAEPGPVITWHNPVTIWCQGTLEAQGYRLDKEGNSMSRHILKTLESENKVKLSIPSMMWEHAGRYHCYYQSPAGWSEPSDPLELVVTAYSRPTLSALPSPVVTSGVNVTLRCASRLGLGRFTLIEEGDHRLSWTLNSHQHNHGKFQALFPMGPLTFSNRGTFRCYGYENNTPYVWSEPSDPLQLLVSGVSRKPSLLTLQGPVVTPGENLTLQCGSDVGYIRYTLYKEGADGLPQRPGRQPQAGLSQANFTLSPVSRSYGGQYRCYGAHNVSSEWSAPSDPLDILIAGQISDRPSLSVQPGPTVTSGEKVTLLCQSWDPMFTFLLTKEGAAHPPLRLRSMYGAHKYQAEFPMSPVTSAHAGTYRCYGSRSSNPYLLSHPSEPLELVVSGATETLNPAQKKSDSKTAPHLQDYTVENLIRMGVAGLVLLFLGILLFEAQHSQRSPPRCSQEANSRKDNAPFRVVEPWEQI
# Procedure, shortened: as §2
# [14] = target: T12, human LILRA1 on HEK293-6E cells (human, UniProt O75019 17-489); test: flow cytometry, HEK293-6E transfectants
# T12 construct: whole, on cells; also called hLILRA1
# T12 sequence (O75019 17-489): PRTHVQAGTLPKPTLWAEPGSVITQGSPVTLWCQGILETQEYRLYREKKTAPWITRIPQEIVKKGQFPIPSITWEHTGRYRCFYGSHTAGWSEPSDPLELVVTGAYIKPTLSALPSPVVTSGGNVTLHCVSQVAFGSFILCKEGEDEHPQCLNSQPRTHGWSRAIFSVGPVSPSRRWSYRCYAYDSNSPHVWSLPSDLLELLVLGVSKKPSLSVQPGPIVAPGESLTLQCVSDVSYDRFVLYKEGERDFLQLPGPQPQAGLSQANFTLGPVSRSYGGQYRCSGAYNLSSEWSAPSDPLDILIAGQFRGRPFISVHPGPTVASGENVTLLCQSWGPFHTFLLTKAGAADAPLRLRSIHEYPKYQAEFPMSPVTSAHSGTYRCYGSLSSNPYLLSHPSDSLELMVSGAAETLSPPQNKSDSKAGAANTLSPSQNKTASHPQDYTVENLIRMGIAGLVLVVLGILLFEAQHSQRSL
# Procedure, shortened: as §2
# [15] = target: T13, human LILRB4 on HEK293-6E cells (human, UniProt Q8NHJ6 22-448); test: flow cytometry, HEK293-6E transfectants
# T13 construct: whole, on cells; also called hLILRB4
# Procedure, shortened: as §2
# human LILRB1 on cells [16] = target: T5, human LILRB1 on cells; test: flow cytometry, 721.221 cells, AF647-labelled antibody
# Procedure, shortened: as §1
# human LILRB1 on cells [17] = target: T5, human LILRB1 on cells; test: flow cytometry, AF647-labelled antibody at 10 µg/mL on human PBMC, gate: CD56dim CD16+ NK cells (LILRB1-expressing subset per paragraph 345)
# Method: To further characterize the binding of LILRB2/1 antibodies to LILRB1 expressing immune cell subsets (namely, B, T, and NK cells), binding assays were performed with primary human PBMCs. Single cell suspensions of peripheral blood mononuclear cells (PBMCs) from healthy donors were seeded at 0.5 million per well in 96-well plates (Thermo Fisher, No. 249946). PBMCs were blocked with 0.5 mg/mL of human IgG1 myeloma plasma (Athens Research, No. 16-16-090707-1M) in FACS Buffer (PBS containing 2% FBS, 2 mM EDTA and 0.05% NaN₃) for 45 min to 1 h at 4° C. The immune cell phenotyping antibodies and indicated AlexaFluor647-labeled test antibodies were then added to the cells and incubated for 45 min to 1 h at 4° C.
# Cells were washed 1× with PBS and stained with the Zombie Violet™ fixable viability dye for 15 min at RT for live cell discrimination. Cells were washed 1× with FACS Buffer, fixed, and acquired on a FACS Symphony cytometer (BD Biosciences). Data analysis was performed using the FlowJo software (v10.8.1). […]
binder,measurement,setting,value
B1,EC50 (read off the curve),human LILRB2 on cells [1],~0.6 nM
B2,EC50,human LILRB2 on cells [2],0.0011 µg/mL
same,EC50,[3],0.0187 µg/mL
same,EC50,[4],0.00593 µg/mL
same,EC50,[5],0.45 µg/mL
same,MFI,human LILRB1 on cells [6],988 MFI
same,MFI,[7],93.3 MFI
same,binding result,[7],no binding (tested: 1 µg/mL)
same,MFI,[8],151 MFI
same,binding result,[8],no binding (tested: 1 µg/mL)
same,MFI,human LILRB2 on cells [9],5760 MFI
same,MFI,[10],78.3 MFI
same,binding result,[10],no binding (tested: 1 µg/mL)
same,MFI,[11],28.6 MFI
same,binding result,[11],no binding (tested: 1 µg/mL)
same,MFI,[12],104 MFI
same,binding result,[12],no binding (tested: 1 µg/mL)
same,MFI,[13],140 MFI
same,binding result,[13],no binding (tested: 1 µg/mL)
same,MFI,[14],249 MFI
same,binding result,[14],no binding (tested: 1 µg/mL)
same,MFI,[15],33.5 MFI
same,binding result,[15],no binding (tested: 1 µg/mL)
same,EC50,human LILRB1 on cells [16],0.0552 µg/mL
B3,binding result,human LILRB1 on cells [17],binds
B4,binding result,human LILRB1 on cells [17],binds
